From the supplement of paper PMC7125110
± gives the standard error. For some of these results: This sample holds only a part of the variants without activity.

B1: glmS ribozyme (parent)
chain: AUAAAAGCGCCAGAACUACAGAAAUGUAGUUGACGAGGAGGAGGUUUAUCGAAUUUUCGGCGGAUGCCUCCAAA

Tests used:
Settings in all cases: with glucosamine-6-phosphate
glucosamine-6-phosphate [1] = variants of: B1; assay: kcat; higher = faster cleavage; RNA array
How it was run: (§1)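 Weighted Michaelis–Menten fits across concentrations supplied kcat and KM, based on kobs from one- or two-exponential decay fits to normalised per-tile medians. The data came from barcoded ribozyme variants transcribed in situ by E. coli RNA polymerase on sequenced MiSeq chips and tracked at 37 °C by a hybridised Cy3 probe. Glucosamine-6-phosphate (40 μM to 10 mM) in HEPES/KCl/Mg(OAc)2 buffer was flowed in.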

glucosamine-6-phosphate [2] = variants of: B1; assay: KM; higher = weaker cofactor use; RNA array
How it was run: as §1

glucosamine-6-phosphate [3] = variants of: B1; assay: self-cleavage kobs at 2500 uM GlcN6P; higher = faster cleavage; RNA array
How it was run: as §1

glucosamine-6-phosphate [4] = variants of: B1; assay: self-cleavage kobs at 10000 uM GlcN6P; higher = faster cleavage; RNA array
How it was run: as §1

glucosamine-6-phosphate [5] = variants of: B1; assay: self-cleavage kobs at 160 uM GlcN6P; higher = faster cleavage; RNA array
How it was run: as §1

glucosamine-6-phosphate [6] = variants of: B1; assay: self-cleavage kobs at 40 uM GlcN6P; higher = faster cleavage; RNA array
How it was run: as §1

glucosamine-6-phosphate [7] = variants of: B1; assay: self-cleavage kobs at 640 uM GlcN6P; higher = faster cleavage; RNA array
How it was run: as §1

Variant	kcat (glucosamine-6-phosphate [1])	KM (glucosamine-6-phosphate [2])	self-cleavage kobs at 2500 uM GlcN6P (glucosamine-6-phosphate [3])	self-cleavage kobs at 10000 uM GlcN6P (glucosamine-6-phosphate [4])	self-cleavage kobs at 160 uM GlcN6P (glucosamine-6-phosphate [5])	self-cleavage kobs at 40 uM GlcN6P (glucosamine-6-phosphate [6])	self-cleavage kobs at 640 uM GlcN6P (glucosamine-6-phosphate [7])
A6C U54C	0.000106 ± 1.8e-05 s⁻¹	2090 ± 1000 µM	6.36e-05 ± 1e-05 s⁻¹	8.4e-05 ± 1.4e-05 s⁻¹	–	–	–
A6G U46G C68U	3.96e-05 ± 1.9e-05 s⁻¹	–	4.82e-05 ± 2.3e-05 s⁻¹	–	–	–	–
C10U G32U	4.97e-05 ± 3.1e-06 s⁻¹	–	5.05e-05 ± 1.2e-05 s⁻¹	4.67e-05 ± 6.1e-06 s⁻¹	< 1e-05 s⁻¹	–	–
C10U A53U G59C C68G	< 1e-05 s⁻¹	–	–	–	–	< 1e-05 s⁻¹	–
C11A U54A	0.000163 ± 1.3e-05 s⁻¹	1490 ± 400 µM	9.05e-05 ± 1.9e-05 s⁻¹	0.000145 ± 1.4e-05 s⁻¹	–	–	5.49e-05 ± 1.4e-05 s⁻¹
A6G G66A	0.000421 ± 2.1e-05 s⁻¹	2650 ± 210 µM	0.000217 ± 5.1e-05 s⁻¹	0.000325 ± 7.5e-05 s⁻¹	–	–	8.05e-05 ± 1.4e-05 s⁻¹
C8U C58U C68A	2.49e-05 ± 7.3e-06 s⁻¹	–	< 1e-05 s⁻¹	–	–	–	–
C11G U30C U65G U69A	2.81e-05 ± 7.1e-06 s⁻¹	–	–	–	–	–	–
C11G A14U C70A	3.61e-05 ± 1.3e-05 s⁻¹	–	–	–	–	–	–
G7U C71G	1.1e-05 ± 2.1e-06 s⁻¹	–	–	–	< 1e-05 s⁻¹	–	–
C10A A14U G59U C71G	1.42e-05 ± 3.8e-06 s⁻¹	–	–	–	–	–	–
A6U G13U	< 1e-05 s⁻¹	–	–	–	–	< 1e-05 s⁻¹	< 1e-05 s⁻¹
C11G C50G	0.000265 ± 6.8e-05 s⁻¹	–	0.000209 ± 5e-05 s⁻¹	0.000187 ± 9.3e-05 s⁻¹	0.00024 ± 4.8e-05 s⁻¹	6.35e-05 ± 1.4e-05 s⁻¹	0.000352 ± 7.5e-05 s⁻¹
C10U C68G C70U	7.35e-05 ± 2.9e-05 s⁻¹	–	5.98e-05 ± 1.4e-05 s⁻¹	–	3.3e-05 ± 1.5e-05 s⁻¹	–	0.00013 ± 2.8e-05 s⁻¹
C10U U31A	2.74e-05 ± 1e-06 s⁻¹	5120 ± 380 µM	–	–	–	–	–
C11A C50U A64U	< 1e-05 s⁻¹	–	–	–	–	–	–
A6G U47G	0.0001 ± 1.3e-05 s⁻¹	1400 ± 520 µM	6.1e-05 ± 1.2e-05 s⁻¹	9.1e-05 ± 1.8e-05 s⁻¹	–	< 1e-05 s⁻¹	3.81e-05 ± 1.5e-05 s⁻¹
C8G U57C	< 1e-05 s⁻¹	–	< 1e-05 s⁻¹	< 1e-05 s⁻¹	–	< 1e-05 s⁻¹	< 1e-05 s⁻¹
A6G C67U	0.000111 ± 4.4e-05 s⁻¹	–	–	8.08e-05 ± 7.3e-06 s⁻¹	–	–	–
A6U U56A	0.000103 ± 7e-06 s⁻¹	1590 ± 350 µM	5.83e-05 ± 9e-06 s⁻¹	9.06e-05 ± 9.5e-06 s⁻¹	–	–	3.39e-05 ± 1e-05 s⁻¹
A6U U56G	0.000121 ± 1.2e-05 s⁻¹	1090 ± 430 µM	9.43e-05 ± 1.2e-05 s⁻¹	0.000104 ± 1.1e-05 s⁻¹	–	–	3.35e-05 ± 1.5e-05 s⁻¹
A6G U31C	6.74e-05 ± 1.3e-05 s⁻¹	–	5.13e-05 ± 7.6e-06 s⁻¹	5.58e-05 ± 7.5e-06 s⁻¹	–	–	–
C10U U47C U56G C68U U69A	< 1e-05 s⁻¹	429 ± 190 µM	–	< 1e-05 s⁻¹	–	–	< 1e-05 s⁻¹

Variant	kcat (glucosamine-6-phosphate [1])	KM (glucosamine-6-phosphate [2])	self-cleavage kobs at 2500 uM GlcN6P (glucosamine-6-phosphate [3])	self-cleavage kobs at 10000 uM GlcN6P (glucosamine-6-phosphate [4])	self-cleavage kobs at 160 uM GlcN6P (glucosamine-6-phosphate [5])	self-cleavage kobs at 40 uM GlcN6P (glucosamine-6-phosphate [6])	self-cleavage kobs at 640 uM GlcN6P (glucosamine-6-phosphate [7])
C10U A53U	1.55e-05 ± 3.9e-06 s⁻¹	–	–	–	–	–	–
C10U A14C U30A G35A G38A	< 1e-05 s⁻¹	–	–	–	–	–	–
A6C U69A	2.1e-05 ± 3.8e-06 s⁻¹	–	–	–	–	–	–
C11A A15G C16A G29U	0.000222 ± 4.3e-05 s⁻¹	2210 ± 1100 µM	0.000102 ± 2.4e-05 s⁻¹	0.000192 ± 3.5e-05 s⁻¹	–	–	6.91e-05 ± 2.4e-05 s⁻¹
A6C G37U	< 1e-05 s⁻¹	–	–	–	–	< 1e-05 s⁻¹	–
G9A G32C C67A	< 1e-05 s⁻¹	304 ± 150 µM	< 1e-05 s⁻¹	–	–	–	–
A6U A15U	3.81e-05 ± 2.5e-06 s⁻¹	1260 ± 360 µM	2.31e-05 ± 8.8e-06 s⁻¹	3.44e-05 ± 7e-06 s⁻¹	–	–	–
G7U C10U G37A C67A	3.55e-05 ± 1.6e-05 s⁻¹	–	–	–	–	–	–
G9A U55A	2.49e-05 ± 5.6e-07 s⁻¹	1410 ± 200 µM	–	2.18e-05 ± 9.9e-06 s⁻¹	–	–	–
C8A U49C	< 1e-05 s⁻¹	–	< 1e-05 s⁻¹	–	–	–	< 1e-05 s⁻¹
C11A C50A	1.11e-05 ± 3.1e-06 s⁻¹	–	–	–	–	–	–
G7A	4.39e-05 ± 1.2e-06 s⁻¹	4040 ± 350 µM	1.71e-05 ± 2.6e-06 s⁻¹	3.13e-05 ± 1.1e-06 s⁻¹	–	–	–
C10U G35A	1.32e-05 ± 1.8e-06 s⁻¹	–	–	< 1e-05 s⁻¹	–	–	–
A6C A15C	3.27e-05 ± 1.8e-06 s⁻¹	–	–	–	–	–	–
C11A A15C	7.9e-05 ± 2.8e-05 s⁻¹	–	8.45e-05 ± 1.9e-05 s⁻¹	5.67e-05 ± 2.2e-05 s⁻¹	–	–	–
C11A U56A	0.000143 ± 1.9e-06 s⁻¹	2090 ± 78 µM	7.89e-05 ± 1.5e-05 s⁻¹	0.000118 ± 1.3e-05 s⁻¹	–	–	3.27e-05 ± 1e-05 s⁻¹
C11A U56C	2.55e-05 ± 1e-05 s⁻¹	–	4.6e-05 ± 2.2e-05 s⁻¹	–	< 1e-05 s⁻¹	< 1e-05 s⁻¹	–
G9A U54C	0.000246 ± 5.5e-05 s⁻¹	–	–	3.34e-05 ± 1.3e-05 s⁻¹	–	–	–
C10G G51U C68U C70U	< 1e-05 s⁻¹	–	–	–	–	–	–
A6U G32U C50G	6.32e-05 ± 1.6e-05 s⁻¹	–	6.04e-05 ± 1.5e-05 s⁻¹	–	7.94e-05 ± 1.8e-05 s⁻¹	–	–
C11A G29U	3.97e-05 ± 4.4e-06 s⁻¹	–	3.72e-05 ± 1.1e-05 s⁻¹	3.56e-05 ± 8.9e-06 s⁻¹	–	–	–
A6G U54A	0.000561 ± 5.2e-05 s⁻¹	1600 ± 440 µM	0.000387 ± 0.00011 s⁻¹	0.000476 ± 7.7e-05 s⁻¹	–	–	0.000143 ± 5.7e-05 s⁻¹
